Assay results taken from publication PMC12140320, “MeCP2 Lactylation Protects against Ischemic Brain Injury by Transcriptionally Regulating Neuronal Apoptosis”.

Molecular target: MeCP2 WT (human) (Homo sapiens, UniProt P51608 1-486)
Experiment: EMSA; 50-100 nM protein; EMSA: 10 mM HEPES pH 7.6, 50 mM KCl, 1 mM EDTA, 0.05% Triton X-100, 5% glycerol, 1 mM DTT; 50-100 nM protein, 2 nM biotin probe; room temperature 30 min; 6% native PAGE, 0.5x TBE, 4 C
Details: protein: recombinant; (Ni resin); label: biotin; blunt

Sequence of MeCP2 WT (human) (P51608 whole entry): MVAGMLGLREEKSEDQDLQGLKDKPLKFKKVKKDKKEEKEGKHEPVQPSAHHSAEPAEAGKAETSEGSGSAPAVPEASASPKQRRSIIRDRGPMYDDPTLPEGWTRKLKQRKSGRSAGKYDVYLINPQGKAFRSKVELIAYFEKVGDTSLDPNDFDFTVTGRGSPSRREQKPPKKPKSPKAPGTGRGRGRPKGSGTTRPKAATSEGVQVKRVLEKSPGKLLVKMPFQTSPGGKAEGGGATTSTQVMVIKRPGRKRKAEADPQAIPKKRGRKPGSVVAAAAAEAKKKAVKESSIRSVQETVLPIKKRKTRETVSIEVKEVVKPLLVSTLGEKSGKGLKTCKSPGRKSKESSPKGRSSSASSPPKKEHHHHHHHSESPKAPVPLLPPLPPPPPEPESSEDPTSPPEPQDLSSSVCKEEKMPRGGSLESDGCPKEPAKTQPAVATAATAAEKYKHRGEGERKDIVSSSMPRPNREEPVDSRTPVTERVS

Row | Binder | binding result
1 | human-Pdcd4 mCpG probe (dsDNA, 5-methyl-dC at CpG, both strands; printed '(5-Methyl dC)CG' read as mCG to match the unmethylated probe) DNA 1: GCGCATGCGCCCTCCCGCGCCCCTCCCC DNA 2: GGGGAGGGGCGCGGGAGGGCGCATGCGC | binds
2 | human-Pla2g6 mCpG probe (dsDNA, 5-methyl-dC at CpG, both strands; printed sequence identical to human-Pdcd4 probe (possible error in paper)) DNA 1: GCGCATGCGCCCTCCCGCGCCCCTCCCC DNA 2: GGGGAGGGGCGCGGGAGGGCGCATGCGC | binds
